Measured values from patent publication US20260258397A1, “REAGENTS AND SYSTEMS FOR […]” (priority 2023, published 2026).
Entries after “also recorded” stand apart in the source; their conditions may differ. Where two headings read alike, the source gives them in different places.

B1: PYR1^PIRI (protein)
chain: MPSELTPEERSELKNSIAEFHTYQLDPGSCSSLHAQRIHAPPELVWSIVRRFDKPQTYRHFIKSCSVEQNFEMRVGCTRDVIVISGLPANTMTERLDILDDERRVTGFSIIGGEHRLTSYKQVTTVHRFGKENRIWTVVLESYVVDMPEGNSEDDTRMTTDTVVKLNLQKLATAAEAMARNSGDGSGSQVT
B2: PYL2^WIN: PYL2 sensor (K64Q, F165A, V1661), SEQ ID NO: 37 (protein)
chain: MSSSPAVKGLTDEEQKTLEPVIKTYHQFEPDPTTCTSLITQRIHAPASVVWPLIRRFDNPERYQHFVKRCRLISGDGDVGSVREVTVISGLPASTSTERLEFVDDDHRVLSFRVVGGEHRLKNYKSVTSVNEFLNQDSGKVYTVVLESYTVDIPEGNTEEDTKMAIDTVVKLNLQKLGVAATSAPMHDDE
B3: PYR1^DIAZI (protein)
chain: MPSELTPGERSELKNSIAEFHTYQLDPGSCSSLHAQRIHAPPELVWSIVRRFDKPQTYKHFIKSCSVEQNFEMRVGCTRDYIVISGMPANTSTERLDILDDERRVTGYSIIGGEHRLTNYKSVTTVHRFEKENRIWTVVLESYVVDMPEGNSEDDTRVGVDTVVKLNLQKLATVAEAMARNSGDGSGSQVT

How the values were obtained:
ΔN-HAB1 = test: Ligand/receptor-mediated PP2C (ΔN-HAB1 phosphatase) inhibition by recombinant PYR1 sensors; type: biochemical, Arabidopsis; conditions: for response of evolved organophosphate receptors to native ligand ABA: HAB1 inhibition and Y2H assays, ABA tested at 5000 nM in Y2H; for EC50: read-out: EC50, receptor-mediated inhibition of HAB1 phosphatase activity in vitro
Method: Coding sequences of the cannabinoid sensors were cloned into the protein expression vector pET28a to encode 6×His-tag-receptor fusions.
(§1) High-affinity sensors were tested for cross reaction using both Y2H and in vitro PP2C assays. […] Similar methods were used to characterize PYR1^PIRI and PYR1^WIN sensor selectivity and sensitivity.

Luc^N-PYR1/Luc^C-ΔN-HAB1 = test: In vivo split NanoLuc luciferase complementation in yeast; type: cell-based, S. cerevisiae; conditions: read-out: EC50 split luciferase reconstitution
Method: Ligand was added to yeast cultures 12 h prior to measuring cell luminescence. A sample of each culture was diluted to an OD600 of 0.2, 10 μL of which was transferred to a 96-well plate, the luciferase reagent mixture (Nano-Glo live cell substrate; Promega) diluted to a 1× concentration with DI water was added to the cell sample to a final volume of 200 μL. The relative luminescence signal (RLU) was measured using a Synergy™ Neo2 Multi-Mode Microplate Reader in luminescence detection mode for 30 minutes after the addition of the reagents. The RLU of each measured sample was taken as the average value of the time course once the signal had reached a plateau.
A protein complementation output assay of evolved PYR-based sensors was carried out by NanoLuc split luciferase (19). The larger fragment, LgBit (or Luc^N), was fused to N-terminus of PYR1 variants, while the small fragment, SmBit (or Luc^C) was fused to N-terminus of ΔN-HAB1. […] Ligand was added to yeast cultures 12 hour prior to measuring cell luminescence. […] The relative luminescence signal (RLU) was immediately measured continuously in a Synergy™ Neo2 Multi-Mode Microplate Reader over 30 minutes. The average value of RLU of each measured sample was taken once the measurements had reached a stable value. […]

HAB1 = test: Y2H X-gal staining of evolved sensors: ligand responsiveness and cross reaction; type: cell-based, Arabidopsis; conditions: Y2H, FIG. 7; WIN 55,212-2 or 4F-MDMB-BUTINACA
Method: as §1
The PYL2 coding sequence cloned in the Y2H pBD vector was used as template to incorporate the corresponding PYR1^WIN and PYR1^4F homologous residues via site directed mutagenesis using the QuikChange Lightning Multi Site-Directed mutagenesis kit (Agilent Technologies). Resulting clones PYL2^WIN (K64Q, F165A, V1661) and PYL2^4F (H119Q, Y124G, F165V, V166G) were sequence confirmed and incorporated into MAV99 harboring pACT-HAB1 and tested for ligand activation using uracil-independent growth and X-gal staining experiments. The same method was used to generate a PYL2^WIN version in a protein expression vector for crystallization studies.

| Molecule | response of evolved organophosphate receptors to native ligand ABA (ΔN-HAB1) | EC50 (ΔN-HAB1; sensor PYR1^PIRI, ligand pirimiphos-methyl) [nM] | EC50 (Luc^N-PYR1/Luc^C-ΔN-HAB1; Luc^N-PYR1^PIRI/Luc^C-HAB1 in yeast, ligand pirimiphos-methyl) [nM] | ligand responsiveness of PYL2 transposed sensors (HAB1) | EC50 (ΔN-HAB1; sensor PYR1^DIAZI, ligand diazinon) [nM] | EC50 (Luc^N-PYR1/Luc^C-ΔN-HAB1; Luc^N-PYR1^DIAZI/Luc^C-HAB1 in yeast, ligand diazinon) [nM] |
| --- | --- | --- | --- | --- | --- | --- |
| B1 | no longer bind the native ligand ABA; also recorded: neither receptor was activated by ABA | 58 | 19 | – | – | – |
| B2 | – | – | – | nM ligand responsiveness | – | – |
| B3 | no longer bind the native ligand ABA; also recorded: neither receptor was activated by ABA | – | – | – | 36 | 24 |
